B1: H4H13306P2 (antibody, human IgG4, V domains shown)
VH: EVQLVESGGGLVQPGTSLRLSCAASGFTFDDYAMHWVRQAPGKGLEWVSGITWNSYNIDYADSVKGRFTISRDNAKNSLYLQMNSLRAEDTALYYCAKDDDYSNYVYFDYWGQGTLVTVSS
VL: not shown
B2: H4H13312P2 (antibody, human IgG4, V domains shown)
VH: EVQLVESGGGLVQPGGSLRLSCAASGFIVTTNYMTWLRQAPGKGLEWVSLIYSSGHTYYADSVKGRFTISRHNSKNTLYLQMDSLRAEDTAVYYCASAFAADVFDIWGQGTMVTVSS
VL: not shown
B3: H4H14634D (bispecific antibody, human IgG4, V domains shown)
VH 1: QVQLQESGPGLVKPSETLSLTCTVSGDSISSYYWTWIRQPPGKGLEWIGYIFYRGGTTYNPSLKSRVTISVDTSKNQFSLKLRSVTAADTAVYYCARGDDLLVVTSVYWYIDLWGRGTLVTVSS
VH 2: B2 VH
VL: not shown
notes: MET x MET bispecific, expressed as human IgG4; also called bispecific antibody No. 10
B4: H4H14640D (bispecific antibody, human IgG4, V domains shown)
VH 1: QVQLVQSGTEVKEPGASVKVSCKASGYSFTTYGISWLRQAPGQGLEWMGWISTYNGDTISAQMLQDRVTLTADTSTRTAYMELRSLRSDDTAVYYCARGHEYDSLVYSYWGQGTLVTVSS
VH 2: B2 VH
VL: not shown
notes: MET x MET bispecific, expressed as human IgG4; also called bispecific antibody No. 138
B5: H4H14635D (bispecific antibody, human IgG4, V domains shown)
VH 1: QVQLVESGGGVVQPGRSLRVSCVVSGFTFSSFGMHWVRQAPDKGLEWVAVIWYDGSNDYYSDSVKGRFTISRDNSKNTLFLQMNRLRAEDTAVYYCARANNWNRFDAFDLWGQGTMVTVSS
VH 2: B2 VH
VL: not shown
notes: MET x MET bispecific, expressed as human IgG4; also called bispecific antibody No. 42
B6: H4H14638D (bispecific antibody, human IgG4, V domains shown)
VH 1: QVQLVESGGGVVQPGRSLRLSCAASGFTFSNFGMHWVRQAPGKGLEWVAGIWFDGSNKNYIDSVKGRFTISRDNSKNTLYLQMNSLRAEDTAVYYCAREGYDSGTDYIPYDIFDIWGQGTMVTVSS
VH 2: B2 VH
VL: not shown
notes: MET x MET bispecific, expressed as human IgG4
B7: H4H14637D (bispecific antibody, human IgG4, V domains shown)
VH 1: QVQLVESGGGVVQPGTSLRLSCVASGFTFRNFGMHWVRQAPGKGLEWVANIWFDGSNENYVESIQGRFTISRDNSKNTLNLQMNSLRAEDSAVYYCVREGILGTTNPYDAFDVWGQGTMVTVSS
VH 2: B2 VH
VL: not shown
notes: MET x MET bispecific, expressed as human IgG4; also called bispecific antibody No. 90
B8: H4H14636D (bispecific antibody, human IgG4, V domains shown)
VH 1: EVQLVESGGGLVQPGGSLRLSCAASGFIFSNYEMNWVRQAPGKGLEWISYITSSGNMKYYADSVKGRFTISRDNDKNSLYLQMSSLRVEDTAVYYCVRGGRFLEWLTYYVMVVWGQGTTVTVSS
VH 2: B2 VH
VL: not shown
notes: MET x MET bispecific, expressed as human IgG4; also called bispecific antibody No. 74
B9: H4H14641D (bispecific antibody, human IgG4, V domains shown)
VH 1: QVQLVESGGGVVQPGRSLRLSCSASGFSFSHFGMHWVRQVPGGGLEWVTSIWFDGSNRYYADSLKGRFTISRDNSKNTLYLEMNSLRAEDTAVYYCVREGILGTTNPYDVFDVWGQGTMVTVSS
VH 2: B2 VH
VL: not shown
notes: as for B6
B10: H4H13319P2 (antibody, human IgG4, V domains shown)
VH: QVQLVESGGGVVQPGRSLRLSCAASGFTFSSFAMHWVRQAPGKGLEWVAVIWYDGSNDYYAASVKGRFTISRDNSKNTLYLEMNRLRAEDTAVYHCARDNWNYWGGMDVWGQGTTVTVSS
VL: not shown
B11: H4H13299P2 (antibody, human IgG4, V domains shown)
VH: B8 VH 1
VL: not shown
B12: H4H13311P2 (antibody, human IgG4, V domains shown)
VH: QVQLVESGGGVVQPGRSLRLSCAASGFTFSSYAMHWVRQAPGRGLEWVAVIWHDGDVEYYVDSVKDRFTISRDNSKSTLYLQMNSLRAEDTALYYCAREAWDLLRPFDYWGQGTLVTVSS
VL: not shown
B13: H4H13331P2 (antibody, human IgG4, V domains shown)
VH: QVQLQESGPGLVKSSETLSLTCTVSGGSIRNFYWSWLRQPPGKGLEWIGHINYNGGTDYNPSLKSRVTISVDTSKNQFSLNLNSVTAADTAVYYCARQRFYGMDVWGPGTTVTVSS
VL: not shown
B14: H4H13300P2 (antibody, human IgG4, V domains shown)
VH: QVQLVESGGGVVQPGRSLRLSCAVSGFTFSSYGMHWVRQAPGKGLEWVANIWYDGTNDYYPYSVKGRFTISRDNSQNTLYLQMNSLRAEDTAVYYCAREDFINYRSFDYWGQGTLVTVSS
VL: not shown
B15: H4H13290P2 (antibody, human IgG4, V domains shown)
VH: B3 VH 1
VL: not shown
B16: H4H13318P2 (antibody, human IgG4, V domains shown)
VH: QVQLVESGGGVVQPGRSLRLSCVASGFSFSNFGMHWVRQAPGKGLEWVAIIWYDGSNKYYSDSVKGRFTISRDNSKNTLYLQMNSLRVDDTAVYYCARFDRWKFDAFDIWGQGTMVTVSS
VL: not shown
B17: H4H13309P2 (antibody, human IgG4, V domains shown)
VH: B4 VH 1
VL: not shown
B18: H4H13291P2 (antibody, human IgG4, V domains shown)
VH: QVQLVESGGGVVQPGGSLRLSCAASGFTFSGYGMHWVRQAPGKGLEWMAVIWYDGSNDYYPDSVKGRFTISRDNSKNTLYLQMNSLRVEDTAVYYCARDAWDLLRSFDYWGQGTLVTVSS
VL: not shown
B19: H4H13295P2 (antibody, human IgG4, V domains shown)
VH: B5 VH 1
VL: not shown

Legend:
human MET on cells [1] = target: T1, human MET on cells (human, UniProt P08581 25-1390); assay: cell-based or functional assay
human MET on cells [2] = target: T1, human MET on cells; assay: cell-based or functional assay; remark: listed apart in the source
human MET on cells [3] = target: T1, human MET on cells; assay: cell-based or functional assay; remark: listed apart in the source
[4] = target: T2, hMet.mmh (human MET extracellular domain with C-terminal myc-myc-hexahistidine tag) (human, UniProt P08581 309-914; P08581 27-307); assay: SPR 37C, antibody captured
T2 construct: soluble monomeric MET; also called monomeric human MET
Description: Kinetic association (kₐ) and dissociation (kd) rate constants were determined as described in Example 3.
Wherever % Inhibition, HEK293/SRE-Luc Blocking Activity (HGF, 1 h mAb pre-bind) is given: test concentration or dose not given here.

T1 sequence (P08581 25-1390 limits assumed, form in doubt): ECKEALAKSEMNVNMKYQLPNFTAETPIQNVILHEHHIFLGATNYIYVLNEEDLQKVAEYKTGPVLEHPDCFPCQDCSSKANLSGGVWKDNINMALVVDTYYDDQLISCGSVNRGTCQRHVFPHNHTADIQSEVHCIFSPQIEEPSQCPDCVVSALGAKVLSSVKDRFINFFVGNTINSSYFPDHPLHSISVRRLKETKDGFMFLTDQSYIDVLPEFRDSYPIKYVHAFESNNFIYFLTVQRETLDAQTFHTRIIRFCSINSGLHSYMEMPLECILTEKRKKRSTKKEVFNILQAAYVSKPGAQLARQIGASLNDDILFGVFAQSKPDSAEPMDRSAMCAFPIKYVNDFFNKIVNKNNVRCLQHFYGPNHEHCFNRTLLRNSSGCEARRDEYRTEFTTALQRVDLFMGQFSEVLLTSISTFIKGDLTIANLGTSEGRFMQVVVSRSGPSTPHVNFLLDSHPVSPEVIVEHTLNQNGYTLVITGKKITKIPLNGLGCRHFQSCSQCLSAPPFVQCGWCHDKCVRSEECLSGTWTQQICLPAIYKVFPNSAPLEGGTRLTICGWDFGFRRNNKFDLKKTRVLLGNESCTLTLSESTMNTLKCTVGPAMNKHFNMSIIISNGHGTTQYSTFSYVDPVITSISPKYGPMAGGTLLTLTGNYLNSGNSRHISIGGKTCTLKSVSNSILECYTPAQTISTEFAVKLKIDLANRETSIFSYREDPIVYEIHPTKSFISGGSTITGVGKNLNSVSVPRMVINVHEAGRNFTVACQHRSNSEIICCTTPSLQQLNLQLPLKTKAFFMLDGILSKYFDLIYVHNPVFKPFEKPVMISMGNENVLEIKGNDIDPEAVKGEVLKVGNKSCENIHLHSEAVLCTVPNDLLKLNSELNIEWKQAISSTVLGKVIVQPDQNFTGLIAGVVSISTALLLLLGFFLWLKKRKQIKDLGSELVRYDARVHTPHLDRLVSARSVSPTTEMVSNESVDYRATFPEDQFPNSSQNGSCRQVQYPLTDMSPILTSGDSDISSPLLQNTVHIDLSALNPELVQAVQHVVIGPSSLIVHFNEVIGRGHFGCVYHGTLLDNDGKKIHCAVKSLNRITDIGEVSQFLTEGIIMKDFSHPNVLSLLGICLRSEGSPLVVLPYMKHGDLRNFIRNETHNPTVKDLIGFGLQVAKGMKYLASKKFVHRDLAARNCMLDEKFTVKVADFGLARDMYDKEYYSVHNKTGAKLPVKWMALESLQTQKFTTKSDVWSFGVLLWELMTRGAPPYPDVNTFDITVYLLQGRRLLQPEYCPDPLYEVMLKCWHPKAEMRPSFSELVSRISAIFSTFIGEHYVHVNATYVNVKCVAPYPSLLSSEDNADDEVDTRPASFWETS
T2 sequence (P08581 other isoform, or with tags, fused parts or gaps limits assumed, chain 1 of 2): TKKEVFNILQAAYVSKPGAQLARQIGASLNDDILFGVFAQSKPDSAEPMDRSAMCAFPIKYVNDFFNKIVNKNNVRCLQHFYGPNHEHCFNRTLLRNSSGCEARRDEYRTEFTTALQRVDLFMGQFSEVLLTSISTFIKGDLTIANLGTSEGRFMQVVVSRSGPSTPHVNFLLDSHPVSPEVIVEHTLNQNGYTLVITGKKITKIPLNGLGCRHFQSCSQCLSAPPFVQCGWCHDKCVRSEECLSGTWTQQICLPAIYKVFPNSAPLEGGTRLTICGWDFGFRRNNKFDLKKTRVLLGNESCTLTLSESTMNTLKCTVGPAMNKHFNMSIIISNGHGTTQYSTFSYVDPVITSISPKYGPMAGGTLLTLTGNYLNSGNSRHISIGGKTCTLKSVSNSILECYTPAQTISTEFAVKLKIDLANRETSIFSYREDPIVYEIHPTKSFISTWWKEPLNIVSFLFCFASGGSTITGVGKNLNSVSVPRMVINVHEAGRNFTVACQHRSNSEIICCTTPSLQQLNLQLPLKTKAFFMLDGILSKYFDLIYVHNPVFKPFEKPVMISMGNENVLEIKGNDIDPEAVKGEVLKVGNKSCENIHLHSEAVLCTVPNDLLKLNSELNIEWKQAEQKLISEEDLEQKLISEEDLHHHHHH
T2 sequence (P08581 27-307 limits assumed, chain 2 of 2): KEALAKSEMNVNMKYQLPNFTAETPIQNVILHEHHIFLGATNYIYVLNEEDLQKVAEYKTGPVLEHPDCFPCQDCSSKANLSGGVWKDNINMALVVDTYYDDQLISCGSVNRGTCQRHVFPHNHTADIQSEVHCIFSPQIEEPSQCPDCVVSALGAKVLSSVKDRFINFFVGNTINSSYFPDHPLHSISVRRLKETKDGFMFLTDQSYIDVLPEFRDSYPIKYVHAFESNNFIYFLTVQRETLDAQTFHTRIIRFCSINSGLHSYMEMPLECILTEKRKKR

| Binder | % Growth Inhibition, SNU5 cells (human MET on cells [1]) [%] | EC50, Ligand (HGF)-Independent HEK293/SRE-Luc Activation (human MET on cells [2]) [nM] | % Inhibition, HEK293/SRE-Luc Blocking Activity (HGF, 1 h mAb pre-bind) (human MET on cells [2]) [%] | T½ [4] [h] | koff [4] [s⁻¹] | Fold Response, Ligand (HGF)-Independent HEK293/SRE-Luc Activation (human MET on cells [2]) [fold] | IC50, HEK293/SRE-Luc Blocking Activity (HGF, 1 h mAb pre-bind) (human MET on cells [2]) [nM] | other results |
| --- | --- | --- | --- | --- | --- | --- | --- | --- |
| B1 | 28 | 0.013 |  |  |  |  |  | IC50, SNU5 growth (human MET on cells [1]): 0.071 nM |
| B2 | 69 | 0.12 | 48 |  |  |  |  | IC50, SNU5 growth (human MET on cells [1]): 0.78 nM; IC50, 6-day in vitro cytotoxicity, A549 (human MET on cells [3]): > 100 nM; IC50, 6-day in vitro cytotoxicity, EBC-1 (human MET on cells [3]): > 100 nM; IC50, 6-day in vitro cytotoxicity, Hs746t (human MET on cells [3]): > 100 nM; Max % Kill, 6-day in vitro cytotoxicity, A549 (human MET on cells [3]): 7%; Max % Kill, 6-day in vitro cytotoxicity, EBC-1 (human MET on cells [3]): 30%; Max % Kill, 6-day in vitro cytotoxicity, Hs746t (human MET on cells [3]): 0% |
| B3 |  |  |  | ≥ 19.2 | ≤ 1e-05 |  |  |  |
| B4 |  |  |  | ≥ 19.2 | ≤ 1e-05 |  |  |  |
| B5 |  |  |  | 2.34 | 8.21e-05 |  |  |  |
| B6 |  |  |  | 1.17 | 0.000165 |  |  |  |
| B7 |  |  |  | 0.59 | 0.000326 |  |  |  |
| B8 |  |  |  | ≥ 19.2 | ≤ 1e-05 |  |  |  |
| B9 |  |  |  | 0.588 | 0.000327 |  |  |  |
| B10 | 23 | 0.18 | 67 |  |  | 4.8 | 0.052 | IC50, SNU5 growth (human MET on cells [1]): 0.1 nM |
| B11 | -8 | 0.0037 | 51 |  |  | 14.4 |  |  |
| B12 | 8 | 0.3 | 62 |  |  | 5.2 | 0.035 |  |
| B13 | 5 | 0.0023 | 75 |  |  | 7.1 | < 0.01 |  |
| B14 | 16 | 0.48 | 69 |  |  | 2.8 | 0.12 |  |
| B15 | 12 | < 0.002 | 56 |  |  | 9.8 | < 0.002 |  |
| B16 | 18 |  | 77 |  |  | 3.1 | 0.1 | IC50, SNU5 growth (human MET on cells [1]): 0.051 nM |
| B17 | 22 | 0.39 | 77 |  |  | 9.2 | 0.2 | IC50, SNU5 growth (human MET on cells [1]): 0.1 nM |
| B18 | 24 | 0.39 | 61 |  |  | 2.7 | 0.13 |  |
| B19 | 30 | 0.3 | 70 |  |  | 2.8 | 0.055 |  |

Reference: patent US20220040319A1 (Regeneron, published 2022)
